Reference: patent publication US20260007740A1 (SPYBIOTECH, published 2026)

Target: T1, SpyCatcher-HBsAg (Hepatitis B virus (adw serotype) for …)
T1 construct: Expressed in Pichia pastoris; also called HBsAg VLP monomer; SpyCatcher-HBsAg VLP
Test: isopeptide conjugation in TBS, followed by SDS-PAGE and Western blot

B1: RSV-F-SpyTag (RSV-F Sc9-10 DS-Cav1 A149C Y458C-SpyTag-Ctag) (other)
chain: QNITEEFYQSTCSAVSKGYLSALRTGWYTSVITIELSNIKENKCNGTDAKVKLIKQELDKYKNAVTELQLLMQSTPATGSGSAICSGVAVCKVLHLEGEVNKIKSALLSTNKAVVSLSNGVSVLTFKVLDLKNYIDKQLLPILNKQSCSISNIETVIEFQQKNNRLLEITREFSVNAGVTTPVSTYMLTNSELLSLINDMPITNDQKKLMSNNVQIVRQQSYSIMCIIKEEVLAYVVQLPLYGVIDTPCWKLHTSPLCTTNTKEGSNICLTRTDRGWYCDNAGSVSFFPQAETCKVQSNRVFCDTMNSRTLPSEVNLCNVDIFNPKYDCKIMTSKTDVSSSVITSLGAIVSCYGKTKCTASNKNRGIIKTFSNGCDYVSNKGVDTVSVGNTLYCVNKQEGKSLYVKGEPIINFYDPLVFPSDEFDASISQVNEKINQSLAFIRKSDELLSAIGGYIPEAPRDGQAYVRKDGEWVLLSTFLGSGGSGAHIVMVDAYKPTKEPEA
notes: Pre-fusion-stabilised single-chain RSV F with T4 fibritin trimerisation motif; Expressed in ExpiCHO cells, purified through the C-tag; also called RSV-F-SpyTag-Ctag; RSF-F-SpyTag
binding result: binds
